From patent US20170355769A1 (AbbVie / Abbott, published 2017)

T1: Mouse B7-H3 on cells (mouse, UniProt Q8VE98 29-316)
T1 construct: whole, on cells
T1 sequence (looked up): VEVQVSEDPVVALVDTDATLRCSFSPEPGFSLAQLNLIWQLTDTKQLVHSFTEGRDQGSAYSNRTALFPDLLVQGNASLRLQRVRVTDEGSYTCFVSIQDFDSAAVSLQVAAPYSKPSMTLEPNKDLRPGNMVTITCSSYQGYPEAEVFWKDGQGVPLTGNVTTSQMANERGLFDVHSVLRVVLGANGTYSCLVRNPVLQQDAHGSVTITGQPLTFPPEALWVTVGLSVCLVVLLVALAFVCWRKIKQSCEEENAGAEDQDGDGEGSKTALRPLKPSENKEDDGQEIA

T2: Human full length B7-H3 (human, UniProt Q5ZPR3 29-534)
T2 construct: On 3T12 fibroblasts expressing full length human B7-H3 or on NCI-H1650 cells; signal peptide residues 1-28 stated; also called huB7-H3; CD276
T2 sequence: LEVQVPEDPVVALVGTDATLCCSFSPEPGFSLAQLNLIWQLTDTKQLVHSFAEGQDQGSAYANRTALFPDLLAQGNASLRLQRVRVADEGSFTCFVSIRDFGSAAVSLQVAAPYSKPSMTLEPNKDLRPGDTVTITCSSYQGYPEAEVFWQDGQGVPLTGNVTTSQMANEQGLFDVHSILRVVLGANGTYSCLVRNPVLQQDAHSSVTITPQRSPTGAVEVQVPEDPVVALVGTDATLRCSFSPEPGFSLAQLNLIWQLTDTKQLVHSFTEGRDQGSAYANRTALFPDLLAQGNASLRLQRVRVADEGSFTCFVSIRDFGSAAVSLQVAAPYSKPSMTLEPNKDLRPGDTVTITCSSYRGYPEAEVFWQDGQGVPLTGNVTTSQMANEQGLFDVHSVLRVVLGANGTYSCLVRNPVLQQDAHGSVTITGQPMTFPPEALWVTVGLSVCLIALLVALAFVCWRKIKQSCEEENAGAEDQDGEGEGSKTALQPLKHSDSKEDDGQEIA

T3: Human B7-H3-ECD (His tag) (human, UniProt Q5ZPR3 29-461)
T3 construct: SPR analyte; also called huB7-H3; soluble ECD of human B7-H3
T3 sequence: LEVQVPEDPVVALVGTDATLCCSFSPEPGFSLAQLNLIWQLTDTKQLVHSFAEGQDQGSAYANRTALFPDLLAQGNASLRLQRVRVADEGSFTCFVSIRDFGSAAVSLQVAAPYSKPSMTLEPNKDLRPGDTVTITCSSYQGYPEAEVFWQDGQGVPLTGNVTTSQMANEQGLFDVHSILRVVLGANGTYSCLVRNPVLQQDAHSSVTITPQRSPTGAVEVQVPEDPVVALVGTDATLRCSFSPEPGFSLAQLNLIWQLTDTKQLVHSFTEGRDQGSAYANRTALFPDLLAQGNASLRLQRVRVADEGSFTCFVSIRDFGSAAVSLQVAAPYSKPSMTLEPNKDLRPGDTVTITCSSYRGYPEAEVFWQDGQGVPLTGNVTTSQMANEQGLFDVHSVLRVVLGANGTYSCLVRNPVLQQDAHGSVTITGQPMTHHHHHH

T4: Cyno B7-H3-ECD (his tag) (cynomolgus)
T4 construct: SPR analyte; also called soluble ECD of cyno B7-H3
T4 chain: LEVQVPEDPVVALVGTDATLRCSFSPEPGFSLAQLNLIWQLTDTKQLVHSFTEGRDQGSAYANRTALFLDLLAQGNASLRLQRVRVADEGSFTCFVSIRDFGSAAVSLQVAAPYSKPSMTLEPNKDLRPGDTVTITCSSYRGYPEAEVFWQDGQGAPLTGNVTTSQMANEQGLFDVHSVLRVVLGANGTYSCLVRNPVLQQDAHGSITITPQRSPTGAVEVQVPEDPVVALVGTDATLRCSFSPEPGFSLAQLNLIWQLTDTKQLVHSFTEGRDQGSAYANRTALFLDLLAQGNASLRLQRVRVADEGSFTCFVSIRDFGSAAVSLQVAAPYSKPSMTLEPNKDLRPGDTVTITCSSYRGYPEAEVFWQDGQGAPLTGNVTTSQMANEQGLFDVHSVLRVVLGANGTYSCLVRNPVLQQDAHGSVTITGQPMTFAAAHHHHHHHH


Tests used:
[1] = biological target: T5, Cynomolgous B7-H3 on cells (cynomolgus); assay: FACS, 3T12 transfectants
T5 construct: whole, on cells; also called cyB7-H3; cyno B7-H3
Experimental: (§1) A selection of hits were subcloned using the MoFlo (Beckman, Indianapolis, Ind., US) by depositing a single cell per well into 96 well cell culture plates to ensure clonality of the cell line. Resulting colonies were screened for specificity by FACS using mouse 3T12 fibroblast cell lines expressing the human B7-H3, cynomolgous B7-H3 or mouse B7-H3. Isotype of each monoclonal antibody was determined using the Mouse Monoclonal Isostyping Kit (Roche, No. 11-493-027-001, Indianapolis, Ind., USA).

Mouse B7-H3 on cells = biological target: T1, Mouse B7-H3 on cells; assay: FACS, 3T12 transfectants
Experimental: as §1

Human full length B7-H3 [2] = biological target: T2, Human full length B7-H3; assay: FACS, 3T12 transfectants
Experimental: as §1

[3] = biological target: T3, Human B7-H3-ECD (His tag); assay: SPR, mAb captured, ECD analyte
Cyno B7-H3-ECD (his tag) = biological target: T4, Cyno B7-H3-ECD (his tag); assay: SPR, mAb captured, ECD analyte
Human full length B7-H3 [4] = biological target: T2, Human full length B7-H3; assay: cell-based or functional assay

Binder	EC50 [1] [nM]	EC50 (Mouse B7-H3 on cells) [nM]	EC50 (Human full length B7-H3 [2]) [nM]	Kd [3] [nM]	koff [3] [s⁻¹]	kon [3] [M⁻¹ s⁻¹]	EC50 nM H1650 (tumor cell cytotoxicity) (Human full length B7-H3 [4]) [nM]	also measured
Ab4 (antibody, mouse IgG2b, V domains shown, mouse IgG2b/k) VH: QVQLQQPGAELVKPGASVKLSCKASGYSFTSYWMHWVKQRPGQGLEWIGMIHPNSGSNNYNEKFKSKATLTVDKSSNTAYMQLSSLTSEDSAVYYCARRLGLHFDYWGQGTTLTVSS VL: DIVMTQSQKFMSTPVGDRVSITCKASQNVGTAVAWYQQKPGQSPKLLIYSASNRYTGVPDRFTGSGSGTDFTLTISNMQSEDLADYFCQQYSSYPYTFGGGTKLEIK	3.1	1.75	4.06	1.6	0.0011	690000		Kd (Cyno B7-H3-ECD (his tag)): 1.8 nM; koff (Cyno B7-H3-ECD (his tag)): 0.00096 s⁻¹; kon (Cyno B7-H3-ECD (his tag)): 540000 M⁻¹ s⁻¹
Ab18 (antibody, mouse IgG1, V domains shown, mouse IgG1/k) VH: QVQLQQSAAELARPGASVKMSCKASGYSFTSYTIHWVKQRPGQGLEWIGYINPNSRNTDYNQKFKDETTLTADRSSSTAYMQLISLTSEDSAVYYCARYSGSTPYWYFDVWGAGTTVTVSS VL: QIVLTQSPAILSASPGEKVTMTCRASSSVSYMNWYQQKPGSSPKPWIYATSNLASGVPARFSVSVSGTSHSLTISRVEAEDAATYYCQQWSSNPLTFGAGTKLELK	6.49		5.98	0.17	3.6e-05	210000		binding result (Mouse B7-H3 on cells): no binding; Kd (Cyno B7-H3-ECD (his tag)): 0.12 nM; koff (Cyno B7-H3-ECD (his tag)): 2.9e-05 s⁻¹; kon (Cyno B7-H3-ECD (his tag)): 240000 M⁻¹ s⁻¹
huAb3v2.6-YG (antibody, human IgG1, kappa, L234A L235A, V domains shown, synthon YG on reduced interchain Cys) VH: EVQLVQSGAEVKKPGSSVKVSCKASGYTFSSYWMHWVRQAPGQGLEWIGLIHPESGSTNYNEMFKNRATLTVDRSTSTAYMELSSLRSEDTAVYYCAGGGRLYFDYWGQGTTVTVSS VL: DIVMTQSPLSLPVTPGEPASISCRSSQSLVHSNQDTYLRWYLQKPGQSPQLLIYKVSNRFSGVPDRFSGSGSGTDFTLKISRVEAEDVGVYYCSQSTHVPYTFGGGTKVEIKR							0.68	
huAb3v2.6-KZ (antibody, human IgG1, kappa, L234A L235A, V domains shown, synthon KZ on reduced interchain Cys) VH: EVQLVQSGAEVKKPGSSVKVSCKASGYTFSSYWMHWVRQAPGQGLEWIGLIHPESGSTNYNEMFKNRATLTVDRSTSTAYMELSSLRSEDTAVYYCAGGGRLYFDYWGQGTTVTVSS VL: DIVMTQSPLSLPVTPGEPASISCRSSQSLVHSNQDTYLRWYLQKPGQSPQLLIYKVSNRFSGVPDRFSGSGSGTDFTLKISRVEAEDVGVYYCSQSTHVPYTFGGGTKVEIKR							5.52	
huAb13v1-AAD (antibody, human IgG1, kappa, L234A L235A, V domains shown, synthon AAD on reduced interchain Cys) VH: EVQLQESGPGLVKPSETLSLTCAVTGYSITSGYSWHWIRQFPGNGLEWMGYIHSSGSTNYNPSLKSRISISRDTSKNQFFLKLSSVTAADTAVYYCAGYDDYFEYWGQGTTVTVSS VL: DIQMTQSPSSLSASVGDRVTITCKASQNVGFNVAWYQQKPGKSPKALIYSASYRYSGVPSRFSGSGSGTDFTLTISSLQPEDFAEYFCQQYNWYPFTFGQGTKLEIKR							0.21	
huAb13v1-ZT (antibody, human IgG1, kappa, L234A L235A, V domains shown, synthon ZT on reduced interchain Cys) VH: EVQLQESGPGLVKPSETLSLTCAVTGYSITSGYSWHWIRQFPGNGLEWMGYIHSSGSTNYNPSLKSRISISRDTSKNQFFLKLSSVTAADTAVYYCAGYDDYFEYWGQGTTVTVSS VL: DIQMTQSPSSLSASVGDRVTITCKASQNVGFNVAWYQQKPGKSPKALIYSASYRYSGVPSRFSGSGSGTDFTLTISSLQPEDFAEYFCQQYNWYPFTFGQGTKLEIKR							0.3	
huAb13v1-ZZ (antibody, human IgG1, kappa, L234A L235A, V domains shown, synthon ZZ on reduced interchain Cys) VH: EVQLQESGPGLVKPSETLSLTCAVTGYSITSGYSWHWIRQFPGNGLEWMGYIHSSGSTNYNPSLKSRISISRDTSKNQFFLKLSSVTAADTAVYYCAGYDDYFEYWGQGTTVTVSS VL: DIQMTQSPSSLSASVGDRVTITCKASQNVGFNVAWYQQKPGKSPKALIYSASYRYSGVPSRFSGSGSGTDFTLTISSLQPEDFAEYFCQQYNWYPFTFGQGTKLEIKR							0.42	
huAb13v1-WD (antibody, human IgG1, kappa, L234A L235A, V domains shown, synthon WD on reduced interchain Cys) VH: EVQLQESGPGLVKPSETLSLTCAVTGYSITSGYSWHWIRQFPGNGLEWMGYIHSSGSTNYNPSLKSRISISRDTSKNQFFLKLSSVTAADTAVYYCAGYDDYFEYWGQGTTVTVSS VL: DIQMTQSPSSLSASVGDRVTITCKASQNVGFNVAWYQQKPGKSPKALIYSASYRYSGVPSRFSGSGSGTDFTLTISSLQPEDFAEYFCQQYNWYPFTFGQGTKLEIKR							0.45	
huAb13v1-LB (antibody, human IgG1, kappa, L234A L235A, V domains shown, synthon LB on reduced interchain Cys) VH: EVQLQESGPGLVKPSETLSLTCAVTGYSITSGYSWHWIRQFPGNGLEWMGYIHSSGSTNYNPSLKSRISISRDTSKNQFFLKLSSVTAADTAVYYCAGYDDYFEYWGQGTTVTVSS VL: DIQMTQSPSSLSASVGDRVTITCKASQNVGFNVAWYQQKPGKSPKALIYSASYRYSGVPSRFSGSGSGTDFTLTISSLQPEDFAEYFCQQYNWYPFTFGQGTKLEIKR							> 133	
Ab9 (antibody, V domains shown) VH: QVQLQQSGAEVKKPGSSVKVSCKASGGTFSSYAISWVRQAPGQGLEWMGGIIPILGIANYAQKFQGRVTITADESTSTAYMELSSLRSEDTAVYYCARGGSGSYHMDVWGKGTTVTVSS VL: EIVLTQSPATLSLSPGERATLSCRASQSVSSYLAWYQQKPGQAPRLLIYDASNRATGIPARFSGSGSGTDFTLTISSLEPEDFAVYYCQQRSNWPPRITFGQGTRLEIKR	259	0.72	4.49	17	0.0011	66000		
Ab8 (antibody, mouse IgG1, V domains shown, mouse IgG1/k) VH: EVKLVESGGGLVKPGGSLKLSCAASGFTFSSYGMSWVRQTPEKRLEWVATISGGGNYTYCPDSVKGRFTISRDNAKNNLYLQMSSLRSEDTALYYCTRQRGYDYHYAMDFWGQGTSVTVSS VL: DIQMTQSPASLSVSVGETVTITCRASENIYSNLAWHQQKQGKSPQLLVYAATNLADGVPSRFSGNGSDTQYSLKINSLQSEDFGSYFCQNFWGTSWTFGGGTKLEIK	8.63	193	3.83	1.7	9.9e-05	58000		Kd (Cyno B7-H3-ECD (his tag)): 1.7 nM; koff (Cyno B7-H3-ECD (his tag)): 0.00026 s⁻¹; kon (Cyno B7-H3-ECD (his tag)): 160000 M⁻¹ s⁻¹
Ab7 (antibody, mouse IgG1, V domains shown, mouse IgG1/k) VH: EVQLVESGENLVKPGGSLKLSCAASGFSFRGYGMSWVRQTPDKRLEWVAAISTGGNYTYYPDSVQGRFTISRDNANNTLYLQMSSLKSEDTAMYYCARRGGNYAGFAYWGQGTLVTVSA VL: DIQMTQSPASLSVSVGETVTITCRPSENIYSNLAWYQQKQGKSPQLLVYAATNLADGVPSRFSGSGSGTQYSLKINSLQSEDFGTYYCQHFWGTPFTFGSGTKLEIK	2.67	67.1	3.22					binding result (Cyno B7-H3-ECD (his tag)): binds
